Series [1] deals with T1, Rhs1 D1338N Y1351A Y1375A, C-terminally FLAG-tagged (catalytic-null mutant used for cryo-EM) (Photorhabdus laumondii (P. luminescens …, UniProt Q7N9I0 1-1471, D1338N | Y1351A | Y1375A)).
T1 construct: Rhs1 (Plu0353) of Photorhabdus laumondii with D1338N (no C-terminal autocleavage) and Y1351A, Y1375A (no toxicity); atomic model built for residues 272-1357; also called Rhs1^FL; source: E. coli BL21(DE3), co-purified with EagR (StrepTrap HP, Superose 6)
T1 sequence (looked up): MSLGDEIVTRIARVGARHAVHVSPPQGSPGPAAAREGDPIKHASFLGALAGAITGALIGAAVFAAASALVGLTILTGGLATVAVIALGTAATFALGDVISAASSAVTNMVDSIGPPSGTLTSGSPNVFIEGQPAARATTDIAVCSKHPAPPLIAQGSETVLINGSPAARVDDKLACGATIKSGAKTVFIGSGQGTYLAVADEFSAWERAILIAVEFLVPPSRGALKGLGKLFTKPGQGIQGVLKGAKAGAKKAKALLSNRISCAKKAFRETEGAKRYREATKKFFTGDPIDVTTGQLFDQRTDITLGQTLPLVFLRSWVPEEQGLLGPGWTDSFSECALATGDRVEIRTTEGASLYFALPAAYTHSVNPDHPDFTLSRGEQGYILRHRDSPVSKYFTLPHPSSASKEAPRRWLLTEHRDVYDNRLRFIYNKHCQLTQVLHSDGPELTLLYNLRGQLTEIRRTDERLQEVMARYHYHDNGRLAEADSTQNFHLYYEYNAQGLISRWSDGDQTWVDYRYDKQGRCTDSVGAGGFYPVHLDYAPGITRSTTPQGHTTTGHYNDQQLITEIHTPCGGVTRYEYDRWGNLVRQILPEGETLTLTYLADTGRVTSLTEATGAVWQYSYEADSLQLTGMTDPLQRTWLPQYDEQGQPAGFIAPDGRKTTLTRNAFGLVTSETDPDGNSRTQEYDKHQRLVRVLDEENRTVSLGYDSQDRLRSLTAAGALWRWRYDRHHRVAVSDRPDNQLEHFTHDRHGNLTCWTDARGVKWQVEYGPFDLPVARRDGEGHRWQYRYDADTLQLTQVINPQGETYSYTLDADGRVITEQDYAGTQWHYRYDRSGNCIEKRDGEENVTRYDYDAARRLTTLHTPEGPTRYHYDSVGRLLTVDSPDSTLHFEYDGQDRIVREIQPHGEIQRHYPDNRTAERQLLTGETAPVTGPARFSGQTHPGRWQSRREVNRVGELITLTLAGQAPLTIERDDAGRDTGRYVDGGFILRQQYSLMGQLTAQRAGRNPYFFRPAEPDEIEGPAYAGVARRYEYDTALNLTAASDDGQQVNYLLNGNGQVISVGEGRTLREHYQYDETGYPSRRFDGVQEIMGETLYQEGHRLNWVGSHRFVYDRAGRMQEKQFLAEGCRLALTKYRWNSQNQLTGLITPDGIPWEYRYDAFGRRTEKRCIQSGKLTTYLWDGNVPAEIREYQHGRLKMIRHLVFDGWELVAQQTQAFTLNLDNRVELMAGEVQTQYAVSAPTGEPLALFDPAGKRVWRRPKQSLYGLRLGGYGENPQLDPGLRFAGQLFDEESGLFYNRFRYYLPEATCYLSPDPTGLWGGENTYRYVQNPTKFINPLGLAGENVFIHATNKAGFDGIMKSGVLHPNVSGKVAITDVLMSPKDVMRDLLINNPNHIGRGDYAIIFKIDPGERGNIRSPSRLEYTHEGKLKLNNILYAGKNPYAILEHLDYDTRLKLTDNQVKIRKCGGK
Kind of series: cryo-EM structure; EagR-Strep/Rhs1-FLAG (D1338N, Y1351A, Y1375A) complex purified by StrepTrap and Superose 6; single particle, Talos Arctica 200 kV; 3.72 Å unmasked map, 3.17 Å masked on the Rhs1 shell; EagR dimer homology model fitted in low-resolution density. To be noted: both partners purified.

Series [2] deals with the molecule itself. Described as above.

The source of these data is PMC8636562, “Mounting, structure and autocleavage of a type VI secretion-associated Rhs polymorphic toxin” (Nature Communications, 2021).

B1: Photorhabdus laumondii EagR chaperone (Plu0354), C-terminally Strep-tagged (natural protein)
chain: MENTTYQMNEGSLAIPGNWRDESMNVFVLPDDSGINLVVSRTPVPAGMDNPAYYEQTLEQFCTHLPGYQEHQRSEITLSQQPARRLDYQWTSPEGDMYQTVILQIRGPLLLTFNLTSPAPFEAGQRDTLLAIVHSFQAA
notes: Eag (DUF1795) family chaperone EagR of Photorhabdus laumondii, Plu0354; also called ^STEagR; EagR^ST; source: E. coli BL21(DE3), co-produced, in total cell extract; also purified in complexes (Strep-Tactin resin; StrepTrap HP and Superose 6); not shown: Strep-tag, C-terminal, kept
B1: the binding result in series [1] and in series [2] was “binds” in each case.
